From paper PMC7616792, “The structural mechanism of dimeric DONSON in replicative helicase activation” (Molecular cell, 2023)
Where a chain is given by its changes, count along the chain named. In names and notes the source's numbering stands.

T1: recombinant FLAG5, His6-tagged GINS (Psf1, Psf2, Psf3 and Sld5) (Xenopus laevis, UniProt Q7ZT47 1-196; Q7ZT46 1-185; Q7ZT01 1-210; Q7ZT48 1-221)
T1 construct: Psf1, subunit of GINS, Xenopus laevis; Psf2, subunit of GINS, Xenopus laevis; Psf3, subunit of GINS, Xenopus laevis; Sld5, subunit of GINS, Xenopus laevis; also called recombinant GINS; FLAG-tagged GINS; copies: + + +
T1 sequence (looked up) 1: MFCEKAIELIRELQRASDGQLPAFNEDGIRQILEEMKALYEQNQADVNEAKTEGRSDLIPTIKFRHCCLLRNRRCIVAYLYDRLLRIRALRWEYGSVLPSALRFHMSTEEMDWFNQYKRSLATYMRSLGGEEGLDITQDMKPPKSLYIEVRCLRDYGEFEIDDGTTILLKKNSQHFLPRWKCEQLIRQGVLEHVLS
T1 sequence (looked up) 2: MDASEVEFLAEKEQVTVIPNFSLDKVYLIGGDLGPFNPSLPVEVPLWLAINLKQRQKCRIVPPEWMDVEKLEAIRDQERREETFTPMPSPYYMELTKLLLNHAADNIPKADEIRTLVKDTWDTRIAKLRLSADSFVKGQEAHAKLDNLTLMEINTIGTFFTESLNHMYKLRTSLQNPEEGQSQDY
T1 sequence (looked up) 3: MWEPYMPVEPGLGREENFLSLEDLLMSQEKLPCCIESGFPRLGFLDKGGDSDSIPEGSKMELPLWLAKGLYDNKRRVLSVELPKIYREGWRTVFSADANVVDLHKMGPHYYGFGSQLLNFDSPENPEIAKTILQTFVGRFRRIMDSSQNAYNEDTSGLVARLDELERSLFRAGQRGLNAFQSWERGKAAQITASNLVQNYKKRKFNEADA
T1 sequence (looked up) 4: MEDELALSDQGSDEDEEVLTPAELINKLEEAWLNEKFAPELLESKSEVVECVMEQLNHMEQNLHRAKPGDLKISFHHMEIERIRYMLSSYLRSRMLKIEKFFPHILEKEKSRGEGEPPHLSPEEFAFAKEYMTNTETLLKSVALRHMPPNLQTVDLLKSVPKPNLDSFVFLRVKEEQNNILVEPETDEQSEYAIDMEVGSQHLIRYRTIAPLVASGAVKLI

B1: recombinant Xenopus laevis DONSON WT (natural protein)
chain: MAELLPGYSPSFKKPSEILRLSRRRSRSEASKTGLSPFSPGDVIKRVPGLRPFSPGPNKGAGVKRRNPFASLENTVCSPVKRRAETVAEYGAASLEPRALSAVRPSCLGQDSPEPPQFNSVEDVIWGDPLAADADPLVKTESPEKPAPACEIPKGSVTFPADWSLKTRLLFTSSHSFSWADHLKAQEEAQGLVMQCRATAVNLPHSIQEPKLSTDLRCAFQQSLVHWIHPSLPWVQLFPRIGVDRKMAGKNTPWSQDESLQQVLMSEWALSFTSLYNLLKAKLCPYFYVCTYQFTVLFRAAGLAGSDVITAVMSPTTRGLREAMKNEGITFSQPLVEDDTGKKQKKPEAASQGDINPEKENGTAEADEASDESDEDESFSWLEEMGVEDKIKKPDSISIKLRKEKNEVKLDHKPESVVLVKGTNTFTLLNFLINCKSIVAAAGLQAGLPPTLLSPVAFRGATMHALKARSVNVKTRVNSGYKDQFSLEITGPIMPHSLHSLTMLLQSAQRGSFSAGLYTHEPTAVFNTPIHSQAVKEISADLQNCGLHPCTVEQLTQVNELGKLSLRHLEMTDYRYTWK
notes: DONSON (Downstream neighbor of Son), Xenopus laevis; also called WT DONSON; WT recombinant DONSON; source: E. coli BL21 (DE3), purified (Ni-NTA)
B2: DONSON 3A (V473A; R476A; Y481A) (natural protein, Xenopus laevis)
chain: B1 chain with V473A, R476A, Y481A
notes: DONSON, Xenopus laevis; also called pET28a-DONSON-3A; source: E. coli BL21 (DE3), purified (Ni-NTA)
B3: DONSONΔ24 (truncation of residues 1–24) (domain or fragment, Xenopus laevis, UniProt Q5U4U4 25-579, looked up)
chain: RSRSEASKTGLSPFSPGDVIKRVPGLRPFSPGPNKGAGVKRRNPFASLENTVCSPVKRRAETVAEYGAASLEPRALSAVRPSCLGQDSPEPPQFNSVEDVIWGDPLAADADPLVKTESPEKPAPACEIPKGSVTFPADWSLKTRLLFTSSHSFSWADHLKAQEEAQGLVMQCRATAVNLPHSIQEPKLSTDLRCAFQQSLVHWIHPSLPWVQLFPRIGVDRKMAGKNTPWSQDESLQQVLMSEWALSFTSLYNLLKAKLCPYFYVCTYQFTVLFRAAGLAGSDVITAVMSPTTRGLREAMKNEGITFSQPLVEDDTGKKQKKPEAASQGDINPEKENGTAEADEASDESDEDESFSWLEEMGVEDKIKKPDSISIKLRKEKNEVKLDHKPESVVLVKGTNTFTLLNFLINCKSIVAAAGLQAGLPPTLLSPVAFRGATMHALKARSVNVKTRVNSGYKDQFSLEITGPIMPHSLHSLTMLLQSAQRGSFSAGLYTHEPTAVFNTPIHSQAVKEISADLQNCGLHPCTVEQLTQVNELGKLSLRHLEMTDYRYTWK
notes: DONSON, Xenopus laevis, without residues 1-24; See the note of m17 on a possible Myc tag; also called DONSON D24 (D1-24); pET28a-DONSON Δ24 (1-24 removed); source: E. coli BL21 (DE3), purified (Ni-NTA)
B4: DONSON ΔD1 (Δ1-155) (domain or fragment, Xenopus laevis, UniProt Q5U4U4 156-579, looked up)
chain: SVTFPADWSLKTRLLFTSSHSFSWADHLKAQEEAQGLVMQCRATAVNLPHSIQEPKLSTDLRCAFQQSLVHWIHPSLPWVQLFPRIGVDRKMAGKNTPWSQDESLQQVLMSEWALSFTSLYNLLKAKLCPYFYVCTYQFTVLFRAAGLAGSDVITAVMSPTTRGLREAMKNEGITFSQPLVEDDTGKKQKKPEAASQGDINPEKENGTAEADEASDESDEDESFSWLEEMGVEDKIKKPDSISIKLRKEKNEVKLDHKPESVVLVKGTNTFTLLNFLINCKSIVAAAGLQAGLPPTLLSPVAFRGATMHALKARSVNVKTRVNSGYKDQFSLEITGPIMPHSLHSLTMLLQSAQRGSFSAGLYTHEPTAVFNTPIHSQAVKEISADLQNCGLHPCTVEQLTQVNELGKLSLRHLEMTDYRYTWK
notes: DONSON, Xenopus laevis, without residues 1-155 (the unstructured D1 loop); also called DONSON DD1 (D1-155); pET28a-DONSON ΔD1; source: recombinant (pET28a vector)
B5: DONSON DEWS (D374A; E377A; W381A; S437A) (natural protein, Xenopus laevis)
chain: B1 chain with D374A, E377A, W381A, S437A
notes: DONSON, Xenopus laevis; also called pET28a-DONSON-DEWS; source: E. coli BL21 (DE3), purified (Ni-NTA)
B6: DONSON DEW (D374A; E377A; W381A) (natural protein, Xenopus laevis)
chain: B1 chain with D374A, E377A, W381A
notes: DONSON, Xenopus laevis; also called pET28a-DONSON-DEW; source: E. coli BL21 (DE3), purified (Ni-NTA)
B7: DONSON S437A (natural protein, Xenopus laevis)
chain: B1 chain with S437A
notes: DONSON, Xenopus laevis; also called DONSON Ser437Ala; pET28a-DONSON-S437A; source: E. coli BL21 (DE3), purified (Ni-NTA)

target: DONSON WM (W234L; M463T) (Xenopus laevis) (UniProt Q5U4U4); test: mass photometry; protein concentration varied (Figure S7); DONSON WM at 20 nM; monomer to dimer; details: not given

Row | stoichiometry N | Molecule
1 | 2 | DONSON WM (W234L; M463T) (from UniProt Q5U4U4 1-579) (natural protein)

target: T1, recombinant FLAG5, His6-tagged GINS …; test: co-IP; recombinant FLAG-tagged GINS immunoprecipitated after incubation with recombinant DONSON variants; blot with an anti-DONSON antibody (Figure S5B); details: both partners purified

Row | binding result | Molecule
2 | binds | B1
3 | binds | B2

Target: the molecule itself
Test: mass photometry; recombinant DONSON proteins diluted ten-fold into Dulbecco PBS to a final concentration of 3 to 5 nM; TwoMP (Refeyn); monomer to dimer
Details: not given

Row | Molecule | stoichiometry N
4 | B3 | 2
5 | B4 | 2
6 | B1 | 2
7 | B5 | 2
8 | B6 | 2
9 | B7 | 2
10 | B2 | 2
